Measured values published in patent US20240254204A1 (NATIONAL UNIVERSITY OF SINGAPORE, published 2024).
Values joined by “and” are separate entries in the source; they are usually repeats but may differ in a detail not shown here. Identical values can stand only once.

How the values were obtained:
Assay in all cases: cell-based or functional assay
[1] = target: SARS-COV-2 Alpha full-length spike (SARS-CoV-2 Alpha)
[2] = target: SARS-COV-2 Delta full-length spike (SARS-CoV-2 Delta)
[3] = target: SARS-COV-2 Beta full-length spike (SARS-CoV-2 Beta)
[4] = target: SARS-COV-2 Gamma full-length spike (SARS-CoV-2 Gamma)

Measured: pseudovirus neutralization NT50

B1: Antibody 11 (SS6V11-E7) (antibody, V domains shown)
VH: QVQLQESGPGLVKPSETLSLTCTVSGGFIGPHYWSWVRQPPGKGLEWIGYIYISGSTNYNPSLKSRLTISVDMSKSQFSLTLSSATAADTAVYYCARGGGYLETGPFEYWGQGTLVTVSS
VL: DIVMTQSPLSLPVTPGEPASISCRSSQSLLQNNGYNYLAWYLQKPGQSPQLLIYLSSTRASGVPDRFSGSGSGTDFTLKISRVEAEDVGVYYCMQSLQIPGTFGQGTRLEIK
< 10 ng/ml and < 0.067 nM: all assays above

B2: Antibody 20 (SS6V20-F5) (antibody, V domains shown)
VH: QVQLQESGPGLVKPSETLSLTCTVSGGSIIGYYWSWIRQPPGKGLEWIGYIYFSANTNYNPSLKSRVTMSVDMSKKQFSLKLRSVTAADTAVYYCARGGGYLETGPLDFWGQGILVTVSS
VL: DIVMTQSPLSLPVTPGEPASISCRSSQSLMQLNGYNYLAWYLQRPGQSPQLLIYLGSTRASGVPDRFSGSGSGTDFTLKITRVEAEDVGVYYCMQGLQIPGTFGQGTRLEIK
< 10 ng/ml and < 0.067 nM: all assays above

B3: Antibody 13 (SS6V13-F1) (antibody, V domains shown)
VH: QVQLQESGPGLVKPSETLSLTCSVSGVSILGSYWGWIRQPPGTGLQWIGYIYFSENTNYNPSLQSRVTMSLDTSKNLLSLKLSSVTAADTAVYYCARGGGYLETGPFDSWGQGTLVTVSS
VL: DIVMTQSPLSLPVTPGEPASISCRSSQGLVQSNGYNYLAWYLQKPGQSPQLLIYLGSNRASGVPDRFSGSGSGTDFTLKISRVEAEDVGVYYCMQGLQTPGTFGQGTRLEIK
< 10 ng/ml and < 0.067 nM: all assays above
